Tests used:
[1] = biological target: Tfl-bZip (GCN4 bZip segment 226-281 with Tfl-GCN4-p1 dimerization domain) four d-position Leu of the GCN4-p1 zipper replaced by 5,5,5-trifluoroleucine (UniProt P03069); assay: EMSA; conditions: densitometry of mobility shift
[2] = biological target: T1, Leu-bZip (GCN4 bZip segment, residues 226-281) (UniProt P03069 P03069:226-281); assay: EMSA; densitometry of mobility shift; conditions: protein: synthetic; tags: 56-residue peptide; chain copies: 2 (stated, dimer)
T1 sequence (P03069 226-281, one chain of several): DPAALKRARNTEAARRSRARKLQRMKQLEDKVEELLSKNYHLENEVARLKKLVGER

[3] = biological target: T1, Leu-bZip (GCN4 bZip segment, residues …); assay: EMSA; no protein-bound DNA seen; conditions: protein: synthetic; tags: 56-residue peptide; chain copies: 2 (stated, dimer)

Chain of Tfl-bZip (GCN4 bZip segment 226-281 with Tfl-GCN4-p1 dimerization domain) four d-position Leu of the GCN4-p1 zipper replaced by 5,5,5-trifluoroleucine (P03069 whole entry, the tested form may be a part): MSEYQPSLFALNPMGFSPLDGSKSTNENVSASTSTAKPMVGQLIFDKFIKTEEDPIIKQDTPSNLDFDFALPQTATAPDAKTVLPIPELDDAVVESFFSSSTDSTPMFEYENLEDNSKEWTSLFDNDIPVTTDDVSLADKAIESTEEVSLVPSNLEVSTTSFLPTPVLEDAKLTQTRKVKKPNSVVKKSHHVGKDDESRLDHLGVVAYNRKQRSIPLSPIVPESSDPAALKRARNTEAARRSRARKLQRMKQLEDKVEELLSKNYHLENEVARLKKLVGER

## GTGGAGATGACTCATCTCCGG (double strand) [AP-1 site oligonucleotide]
[1]
  Kd: 12.5 nM

## TGGAGATGACGTCATCTCCT (double strand) [CREB site oligonucleotide]
[1]; CD at 0 C also shows coil-to-helix transition on CREB DNA
  Kd: 5.4 nM

B1: AP-1 site oligonucleotide (dsDNA)
DNA 1: GTGGAGATGACTCATCTCCGG
DNA 2: CCGGAGATGAGTCATCTCCAC
[2]
  Kd: 12.8 nM

B2: NON nonspecific oligonucleotide (dsDNA)
DNA 1: GATCCCAACACGTGTTGGGATC
DNA 2: GATCCCAACACGTGTTGGGATC
[3]
  binding result: no binding

— patent US20040214988, “Method for stabilization of proteins using non-natural amino acids” (California Institute of Technology, published 2004)
